Source: paper PMC6520340, “Development of a ribonuclease containing a G4-specific binding motif for programmable RNA cleavage”

Molecular target: RNase HI catalytic domain (wild-type) (Bacillus halodurans, UniProt Q9KEI9 59-196)
Assay: EMSA; 10 uM DNA, 50 uM protein; 100 mM K+; Native 10% PAGE in 1X TBE, 20 mM potassium phosphate, 100 mM KCl, pH 7.0; UV shadowing; temperature not stated
Conditions: protein: recombinant

Sequence of RNase HI catalytic domain (wild-type) (Q9KEI9 59-196): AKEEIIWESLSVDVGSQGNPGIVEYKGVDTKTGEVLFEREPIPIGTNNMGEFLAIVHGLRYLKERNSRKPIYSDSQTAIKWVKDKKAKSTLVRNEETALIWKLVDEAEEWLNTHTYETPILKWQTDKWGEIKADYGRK

Binder	binding result (parallel G4 with 3' single-stranded tail)	binding result (single strand)
TTGGGTGGGTGGGTGGGTTCAACGACGACGGCATCATC (structured_DNA) [B1]	no binding	
TTGACTAAGTGCCTTAGTTCAACGACGACGGCATCATC (ssDNA) [B0]		no binding
